Measured values published in the supplement of paper PMC9876800.

Test system: peptide library, one residue held at a place counted from the S/T acceptor
Assay: relative phosphorylation of the sub-library (ratio to the mean residue at this position); higher = residue favoured
Settings: human
Procedure, shortened: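 Purified recombinant kinases, either human or orthologue constructs, were incubated in 384-well plates with biotinylated degenerate peptide sub-libraries. Each sub-library fixed one residue at one position around a central Ser/Thr. Peptides at 50 μM and 50 μM ATP spiked with γ-32P-ATP were used for 90 min under kinase-specific conditions, and spots on streptavidin membranes were phosphorimaged and quantified by densitometry. Relative sub-library phosphorylation is expressed as a ratio to the mean residue at that position.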

Sequence of STK32C, construct: aa66-end (Q86UX6 66-486, looked up): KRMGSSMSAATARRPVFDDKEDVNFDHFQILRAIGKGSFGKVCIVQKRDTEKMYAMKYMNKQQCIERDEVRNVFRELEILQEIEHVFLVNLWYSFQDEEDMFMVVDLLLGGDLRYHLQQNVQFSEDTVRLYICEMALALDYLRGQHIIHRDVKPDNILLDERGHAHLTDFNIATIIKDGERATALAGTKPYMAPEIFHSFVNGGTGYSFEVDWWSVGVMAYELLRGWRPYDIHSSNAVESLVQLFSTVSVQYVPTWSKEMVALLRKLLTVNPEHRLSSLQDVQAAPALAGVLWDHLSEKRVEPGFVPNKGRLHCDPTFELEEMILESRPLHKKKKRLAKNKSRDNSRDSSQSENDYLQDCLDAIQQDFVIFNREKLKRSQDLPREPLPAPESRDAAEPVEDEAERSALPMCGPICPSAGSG
Sequence of PBK, construct: Full length (Q96KB5 whole entry, looked up): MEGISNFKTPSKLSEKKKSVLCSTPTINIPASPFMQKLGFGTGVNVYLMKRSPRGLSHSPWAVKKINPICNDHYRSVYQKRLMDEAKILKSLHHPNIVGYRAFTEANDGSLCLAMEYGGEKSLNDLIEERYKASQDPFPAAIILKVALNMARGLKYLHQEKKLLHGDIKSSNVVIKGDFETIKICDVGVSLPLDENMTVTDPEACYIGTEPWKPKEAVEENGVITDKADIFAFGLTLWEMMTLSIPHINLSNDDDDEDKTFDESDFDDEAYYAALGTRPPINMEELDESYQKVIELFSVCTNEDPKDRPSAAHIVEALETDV
Sequence of MAP4K4, construct: aa1-328 (O95819 1-328, looked up): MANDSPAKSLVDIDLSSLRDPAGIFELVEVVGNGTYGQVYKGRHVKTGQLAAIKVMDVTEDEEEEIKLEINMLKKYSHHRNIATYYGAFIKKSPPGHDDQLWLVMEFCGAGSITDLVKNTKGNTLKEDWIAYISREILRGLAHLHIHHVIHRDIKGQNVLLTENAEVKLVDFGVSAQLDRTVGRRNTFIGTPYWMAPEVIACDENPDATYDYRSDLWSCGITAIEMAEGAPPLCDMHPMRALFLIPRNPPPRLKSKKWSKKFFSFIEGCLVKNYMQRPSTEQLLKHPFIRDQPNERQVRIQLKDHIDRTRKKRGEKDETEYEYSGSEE

EIF2AK2, construct: aa252-end (from UniProt P19525)
relative phosphorylation
Settings	at +1	at +2	at +3	at +4	at -1	at -2	at -3	at -4	at -5
A fixed	0.837	0.775	0.867	0.96	0.739	1.04	0.961	1.13	1.13
D fixed	0.526	0.705	0.665	0.818	0.726	0.939	1.13	1.05	0.979
E fixed	0.509	0.688	0.599	0.844	0.64	0.912	1.18	0.954	0.945
F fixed	0.695	0.616	1.02	0.701	0.681	0.989	0.774	1.06	0.853
G fixed	1.12	1.55	1.46	1.23	0.724	0.999	1.51	1.13	1.21
H fixed	0.762	1.2	1.16	1.24	1.21	1.14	0.95	1.02	1.07
I fixed	1.01	0.648	0.9	1.04	1.16	0.793	0.89	0.805	0.995
K fixed	1.93	1.5	1.76	1.36	1.93	1.03	1.11	1.15	1.15
L fixed	1.01	0.541	0.896	0.73	0.915	1.32	0.779	0.815	0.767
M fixed	1.25	0.643	0.779	0.935	1.03	1.01	0.961	0.868	0.884
N fixed	1.04	1.78	0.876	0.972	1.18	1.2	0.99	0.937	1
P fixed	0.4	0.644	0.966	0.815	0.648	0.963	0.969	0.954	0.93
Q fixed	1.22	0.845	0.925	0.811	0.95	1.02	0.855	0.92	0.855
R fixed	2.57	2.68	1.7	1.75	1.97	1.09	1.5	1.21	1.41
V fixed	0.897	0.708	0.798	0.812	1.07	0.863	0.819	0.875	0.824
W fixed	0.637	0.715	0.863	1.06	0.64	0.87	0.804	1.24	0.947
Y fixed	0.585	0.757	0.768	0.927	0.771	0.818	0.821	0.878	1.05
pThr fixed	0.58	0.605	0.729	0.854	0.677	0.853	1.04	0.992	0.947
pTyr fixed	0.489	0.897	0.717	0.853	0.629	0.933	0.955	0.735	0.968

PBK, construct: Full length (from UniProt Q96KB5)
relative phosphorylation
Settings	at +1	at +2	at +3	at +4	at -1	at -2	at -3	at -4	at -5
A fixed	1.09	1.14	1.03	1.16	1.08	0.848	1	1.04	1.29
D fixed	0.572	0.524	0.634	0.644	0.384	0.427	0.364	0.545	0.576
E fixed	0.364	0.523	0.604	0.608	0.397	0.382	0.37	0.534	0.491
F fixed	0.394	0.849	0.728	0.848	0.814	1.47	1.57	1.07	0.756
G fixed	7.99	1.17	1.69	1.23	1.25	0.76	0.673	1.11	1
H fixed	0.527	1.11	1.2	0.777	1.48	1.06	0.965	1.16	1.41
I fixed	0.386	0.928	0.641	0.976	0.394	1.07	0.587	0.563	0.733
K fixed	0.475	0.775	1.25	1.2	1.37	1.7	1.49	1.23	1.38
L fixed	0.52	1.04	0.907	1.05	0.719	1.07	0.691	0.669	0.723
M fixed	0.93	1.29	0.717	0.98	1.06	1.09	0.845	0.826	0.833
N fixed	0.658	0.913	1.05	0.855	1.09	0.678	0.625	0.991	0.981
P fixed	0.592	1.38	1.69	1.56	1.06	0.878	0.872	1.16	0.914
Q fixed	0.53	0.802	0.954	0.845	1.55	0.685	0.707	0.856	0.77
R fixed	0.535	0.829	1.24	1.05	1.81	1.23	1.98	1.56	1.99
V fixed	0.476	1.37	0.956	0.983	0.517	0.932	0.709	0.642	0.777
W fixed	0.552	1.45	0.816	1.17	0.76	1.57	1.89	2.04	1.55
Y fixed	0.406	0.891	0.9	1.07	1.27	1.14	1.66	1.01	0.812
pThr fixed	0.348	0.618	0.721	0.507	0.317	0.586	0.638	0.803	0.703
pTyr fixed	0.287	0.497	0.574	0.529	0.537	0.508	0.554	0.703	0.576

STK32C, construct: aa66-end (from UniProt Q86UX6)
relative phosphorylation
Settings	at +1	at +2	at +3	at +4	at -1	at -2	at -3	at -4	at -5
A fixed	0.586	0.613	0.769	0.982	0.776	0.864	0.945	1.11	1.1
D fixed	0.55	0.69	0.689	0.866	0.807	0.64	0.957	1.38	1.18
E fixed	1.12	1.13	0.957	1.46	0.767	0.801	1.03	1.24	0.887
F fixed	2.08	1.21	1.08	0.741	0.739	1.04	0.611	0.759	0.924
G fixed	0.541	0.564	0.682	0.907	1.26	0.918	0.985	1.42	1.32
H fixed	0.588	1.04	1.1	1.02	0.849	0.895	0.645	0.763	0.862
I fixed	1.92	1.03	1.51	0.836	0.592	0.773	0.758	0.812	0.912
K fixed	0.671	0.572	1.05	1.19	1.14	0.826	0.951	0.962	1.05
L fixed	0.965	1.19	0.968	0.832	0.809	1.33	0.772	0.756	0.954
M fixed	1.77	1.09	0.944	0.892	1.09	1.12	0.745	0.94	0.923
N fixed	0.651	0.755	0.836	0.992	1.04	0.841	0.76	0.93	0.882
P fixed	0.399	0.362	0.54	1.21	1.73	1.09	1.04	1.14	1.06
Q fixed	1.18	0.714	0.917	1.07	1.08	0.824	0.796	0.838	0.779
R fixed	1.06	0.743	1.23	1.25	1.97	2.49	3.68	1.38	1.43
V fixed	1.14	0.809	1.33	0.798	0.779	0.745	0.814	0.883	0.854
W fixed	0.863	2.44	1.21	1.05	0.672	0.887	0.698	0.86	0.954
Y fixed	0.919	2.05	1.18	0.899	0.909	0.911	0.804	0.829	0.927
pThr fixed	1.03	2.66	3.27	2.05	1.08	1.28	7.04	1.72	1.18
pTyr fixed	2.11	71.5	5.77	9.82	1.41	2.55	1.39	1.07	1.07

MAP4K4, construct: aa1-328 (from UniProt O95819)
relative phosphorylation
Settings	at +1	at +2	at +3	at +4	at -1	at -2	at -3	at -4	at -5
A fixed	0.704	0.925	0.833	1.06	1.11	1.09	1.06	1.03	1.31
D fixed	0.182	0.658	0.379	0.734	0.805	0.726	0.861	0.82	0.983
E fixed	0.181	0.553	0.325	0.487	0.423	0.544	0.672	0.913	0.714
F fixed	0.947	0.616	0.674	0.705	0.809	1.41	0.966	0.943	0.879
G fixed	0.648	1	0.812	1.2	1.65	1.07	1.23	1.08	1.27
H fixed	0.927	1.13	1.03	1.11	1.35	1.21	1.3	1.14	1.11
I fixed	1.72	0.567	0.575	0.689	0.42	0.804	0.7	0.744	0.807
K fixed	0.896	2.26	2.37	2.03	1.27	0.792	1.16	1.1	1.18
L fixed	2.32	0.728	0.734	0.785	0.941	0.776	0.809	0.808	0.752
M fixed	2.15	0.827	0.681	0.766	1.15	0.907	0.923	1.04	0.841
N fixed	0.688	0.905	0.823	0.956	1.17	0.952	1.09	0.929	0.843
P fixed	0.32	1.02	0.976	1.18	0.742	0.749	0.982	1	1.22
Q fixed	0.645	1.06	0.957	1.06	0.976	0.821	0.979	0.989	0.936
R fixed	0.851	2.49	3.56	1.97	1.41	0.934	1.18	1.16	1.13
V fixed	1.2	0.694	0.653	0.775	0.587	0.852	0.583	0.894	0.909
W fixed	1.6	0.756	0.871	0.823	0.892	1.42	1.27	1.28	1.09
Y fixed	1.02	0.806	0.746	0.669	1.28	1.94	1.22	1.13	1.04
pThr fixed	0.465	0.462	0.606	0.607	0.373	0.608	0.839	0.961	0.998
pTyr fixed	0.306	0.401	0.444	0.434	0.717	0.685	1.01	0.868	0.837
